Data as given in patent publication US20140127225A1 (NEOTOPE BIOSCIENCES, published 2014).
One block for each binder: values may come before it.

Experiments:
[1] = biological target: T1, human iC3b (purified; Complement Technology #A115) (human, UniProt P01024 23-667); assay: assay not described
T1 construct: range 23-667; Bought purified protein; chains held together by disulfide bonds; also called purified human iC3b

[2] = biological target: T1, human iC3b (purified; Complement …); assay: direct ELISA, plate coated with 10 ug/ml iC3b, goat anti-human-HRP, ABTS, OD405
Protocol: Costar RIA/EIA (Costar #3590) plate was coated with 100 ul/well of 10 ug/ml iC3b (Complement Technologies) at 4 degree overnight. At day 2, the plate was washed 5 times with washing buffer (TPBS+0.05% Tween 20) and blocked with 100 ul blocking buffer (PBS containing 1.5% BSA) per well for 1 hour at room temperature. Then the plate was washed 5 times with washing buffer and incubated with 100 ul per well of testing antibodies as indicated in the figure. After 1 hour of incubation at room temperature, the plate was washed again for 5 times with washing buffer and incubated with 1:4000 diluted Goat anti human-HRP (Jackson Immunoresearch, Code 109-036-098, lot 99937) in 100 ul blocking buffer per well.

[3] = biological target: T1, human iC3b (purified; Complement …); assay: sandwich ELISA; antigen captured by chicken anti-C3; reference C3 or C3b
Description: For secondary screening, C3, C3b and iC3b were used for testing cross-reactivity. The plate was coated with chicken anti-C3 antibody (LeeBio #CC3-80A) as the capture antibody. For primary screening, only iC3b was used for antigen capture. For antibody characterization, all C3 proteins (C3 (Complement Technology #A113); C3b (Complement Technology #A114); and iC3b (Complement Technology #A115)) were used for antigen capture. Supernatants from cells, control antibody, mouse anti-human iC3b (the A209 antibody (Quidel)), were used as detecting antibodies, respectively. Goat anti-mouse-HRP (Jackson ImmunoResearch #115-035-164) was used as the secondary Antibody. 1-Step ABTS (Thermo #37615) was used as the substrate.
The sandwich ELISA was performed for the two mice in Example 3. First, cell supernatants were only tested for binding to iC3b. C3, C3b, and iC3b were used in the secondary screening for testing cross-reactivity.

[4] = biological target: T2, human C3 (purified; Complement Technology #A113) (human, UniProt P01024 23-667; P01024 672-1663); assay: Biacore; antibody captured on anti-mouse CM5 chip, four concentrations of antigen; Biacore; 6G1 captured on chip, C3 in solution: weak binding, >10x weaker than iC3b
T2 construct: range 23-667;range 672-1663; Bought purified protein

[5] = biological target: T1, human iC3b (purified; Complement …); assay: Biacore; reference C3
Protocol: (§1) A preliminary Biacore assay was done with four concentrations of either iC3b or one of the two potential cross-reactive complement species (e.g., C3b or C3) to assess relative cross-reactivity. Unlike ELISA, a two-fold difference in KD is not sufficient to establish specificity in the Biacore assay. An anti-mouse CM5 chip was prepared following manufacture protocol. Three antibodies (including 6G1) were captured at levels such that Rmax would fall between 25 and 50 RU. Four concentrations of either iC3b or cross-reacting protein were used. Both were from Complement Technologies as described above.

[6] = biological target: T1, human iC3b (purified; Complement …); assay: Biacore; reference C3b
[7] = biological target: T1, human iC3b (purified; Complement …); assay: Biacore; antibody captured on anti-mouse CM5 chip, four concentrations of antigen
Protocol: as §1

[8] = biological target: T2, human C3 (purified; Complement …); assay: Biacore; antibody captured on anti-mouse CM5 chip, four concentrations of antigen; Biacore; 6G1 captured on chip, C3 in solution: weak binding
[9] = biological target: T1, human iC3b (purified; Complement …); assay: sandwich ELISA; reference C3b

T1 sequence (P01024 23-667 limits assumed, chain 1 of 3): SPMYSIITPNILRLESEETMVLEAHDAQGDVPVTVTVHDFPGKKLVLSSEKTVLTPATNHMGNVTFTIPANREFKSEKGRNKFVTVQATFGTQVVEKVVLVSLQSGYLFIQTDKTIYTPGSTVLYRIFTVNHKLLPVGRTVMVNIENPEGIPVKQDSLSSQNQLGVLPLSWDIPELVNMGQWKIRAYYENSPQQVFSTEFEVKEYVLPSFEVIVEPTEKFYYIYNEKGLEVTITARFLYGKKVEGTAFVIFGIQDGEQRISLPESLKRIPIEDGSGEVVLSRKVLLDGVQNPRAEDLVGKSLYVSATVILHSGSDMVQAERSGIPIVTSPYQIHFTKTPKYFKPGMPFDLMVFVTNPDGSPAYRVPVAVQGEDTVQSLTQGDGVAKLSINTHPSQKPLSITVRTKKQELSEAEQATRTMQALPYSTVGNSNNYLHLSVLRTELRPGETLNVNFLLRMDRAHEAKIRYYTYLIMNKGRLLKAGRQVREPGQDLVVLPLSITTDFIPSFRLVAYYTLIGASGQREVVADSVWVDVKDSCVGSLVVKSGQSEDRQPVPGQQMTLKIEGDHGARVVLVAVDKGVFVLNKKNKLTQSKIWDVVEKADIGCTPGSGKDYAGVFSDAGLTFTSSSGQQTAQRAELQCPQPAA
T1 sequence (P01024 749-1303 limits assumed, chain 2 of 3): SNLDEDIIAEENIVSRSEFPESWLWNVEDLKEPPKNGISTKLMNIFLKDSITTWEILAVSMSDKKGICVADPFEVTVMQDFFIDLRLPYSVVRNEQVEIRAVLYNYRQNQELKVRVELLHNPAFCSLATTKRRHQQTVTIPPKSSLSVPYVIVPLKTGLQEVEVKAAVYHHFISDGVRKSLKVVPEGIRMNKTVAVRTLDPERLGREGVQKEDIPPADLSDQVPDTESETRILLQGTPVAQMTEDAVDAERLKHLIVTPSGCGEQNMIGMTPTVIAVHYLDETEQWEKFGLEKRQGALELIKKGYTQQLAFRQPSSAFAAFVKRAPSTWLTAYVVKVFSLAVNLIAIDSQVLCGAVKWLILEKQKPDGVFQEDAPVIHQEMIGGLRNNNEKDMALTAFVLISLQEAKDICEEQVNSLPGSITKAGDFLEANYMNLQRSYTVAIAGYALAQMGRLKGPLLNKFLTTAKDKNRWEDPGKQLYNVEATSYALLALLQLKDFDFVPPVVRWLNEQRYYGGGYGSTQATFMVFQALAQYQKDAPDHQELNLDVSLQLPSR
T1 sequence (P01024 1321-1663 limits assumed, chain 3 of 3): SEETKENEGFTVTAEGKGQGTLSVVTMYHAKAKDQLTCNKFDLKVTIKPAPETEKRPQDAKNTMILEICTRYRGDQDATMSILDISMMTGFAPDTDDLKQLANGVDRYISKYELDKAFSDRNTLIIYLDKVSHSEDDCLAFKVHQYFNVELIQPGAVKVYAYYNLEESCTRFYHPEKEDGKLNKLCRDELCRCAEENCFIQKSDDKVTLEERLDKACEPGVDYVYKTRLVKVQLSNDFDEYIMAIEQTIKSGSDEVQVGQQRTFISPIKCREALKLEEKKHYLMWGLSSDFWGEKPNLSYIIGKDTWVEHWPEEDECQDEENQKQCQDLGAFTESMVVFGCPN
T2 sequence (P01024 23-667 limits assumed, form in doubt, chain 1 of 2): as the sequence (P01024 23-667 limits assumed, chain 1 of 3) above
T2 sequence (P01024 672-1663 limits assumed, form in doubt, chain 2 of 2): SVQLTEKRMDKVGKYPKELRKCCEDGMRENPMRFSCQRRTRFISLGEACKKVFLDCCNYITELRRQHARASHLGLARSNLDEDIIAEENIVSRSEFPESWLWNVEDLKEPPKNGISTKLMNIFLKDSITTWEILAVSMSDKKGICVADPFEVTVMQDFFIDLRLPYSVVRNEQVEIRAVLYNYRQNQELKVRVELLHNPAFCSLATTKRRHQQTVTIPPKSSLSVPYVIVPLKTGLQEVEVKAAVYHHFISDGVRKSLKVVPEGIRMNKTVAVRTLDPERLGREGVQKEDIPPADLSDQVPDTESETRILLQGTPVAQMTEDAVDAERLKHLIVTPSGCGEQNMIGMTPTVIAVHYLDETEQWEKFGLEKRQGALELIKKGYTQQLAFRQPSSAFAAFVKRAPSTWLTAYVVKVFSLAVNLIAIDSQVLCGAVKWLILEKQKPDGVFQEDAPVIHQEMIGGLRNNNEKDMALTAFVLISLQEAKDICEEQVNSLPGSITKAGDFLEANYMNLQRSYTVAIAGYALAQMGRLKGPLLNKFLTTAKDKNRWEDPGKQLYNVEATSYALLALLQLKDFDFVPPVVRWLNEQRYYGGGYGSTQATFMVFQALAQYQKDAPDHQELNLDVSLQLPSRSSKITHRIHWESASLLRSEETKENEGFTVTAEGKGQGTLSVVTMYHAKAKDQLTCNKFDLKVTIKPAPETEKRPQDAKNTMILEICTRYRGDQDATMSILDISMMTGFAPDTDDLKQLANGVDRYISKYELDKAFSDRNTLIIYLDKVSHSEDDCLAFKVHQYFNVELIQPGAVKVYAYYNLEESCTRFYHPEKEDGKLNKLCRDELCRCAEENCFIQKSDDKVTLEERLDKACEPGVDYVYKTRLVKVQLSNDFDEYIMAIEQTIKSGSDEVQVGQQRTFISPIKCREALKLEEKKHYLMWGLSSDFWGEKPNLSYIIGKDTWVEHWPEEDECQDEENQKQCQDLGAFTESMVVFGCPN

B1: humanized 5D2 version H1L1 (antibody, V domains shown)
VH: EVQLQQSGAEVKKPGASVKVSCKASGYTFTDNYYMNWVRQAPGQSLEWMGHIYPNNGVTSYNQKFRGRVTLTRDKSINTAYMELSSLTSEDTALYYCARNKLLSLYWYFDVWGQGTLVTVSS
VL: DIQMTQSPSSLSASVGDRVTITCRASVDIYNRLAWFQQKPGKAPKLLISGATSLATGVPSRFSGSGSGKDYTLTISSLQPEDFATYYCQQYWSTPWTFGGGTKLEIKR
notes: also called 5D2 H1L1
binding result [1]: binds

B2: humanized 5D2 version H2L1 (antibody, V domains shown)
VH: EVQLQQSGAEVKKPGASVKVSCKASGYTFTDNYYMNWVRQAPGQSLEWMGHIYPNNGVTSYNQKFRGRVTITRDKSINTAYMELSSLTSEDTAVYYCARNKLLSLYWYFDVWGQGTLVTVSS
VL: DIQMTQSPSSLSASVGDRVTITCRASVDIYNRLAWFQQKPGKAPKLLISGATSLATGVPSRFSGSGSGKDYTLTISSLQPEDFATYYCQQYWSTPWTFGGGTKLEIKR
notes: also called 5D2 H2L1
binding result [1]: binds

B4: mouse monoclonal antibody 6G1 (antibody, V domains shown)
VH: QIQLVQSGPELKKPGETVKISCKASGYTFTNYGMNWVKQAPGKDLKWMGWINTYTGEPRYADEFKGRFAFSLETSASTAYLQINNLKNEDMATYFCAKGGYPHYYSMDYWGQGTSVTVSS
VL: DIQMTQSTSSLSASLGDRVTISCRASQDINNYLNWYQQKPDGTIKLLIYYTSKLHSGVPSRFSGSGSGRDYSLTISNLEQEDIATYFCQQGNTLPRTFGGGTKLEIKR
notes: Mouse hybridoma antibody; also called m6G1
fold specificity for iC3b vs. C3 or C3b [3]: > 2 fold
Kd [4]: 2100 nM
fold difference in KD, iC3b relative to C3 [5]: > 10 fold
fold higher affinity constant for iC3b than C3b [6]: ≥ 10 fold
Kd [7]: 43.3 nM
kon [7]: 98000 M⁻¹ s⁻¹
koff [8]: 0.028 s⁻¹
kon [8]: 13000 M⁻¹ s⁻¹

B7: humanized 6G1 version H3L3 (antibody, V domains shown)
VH: QVQLVQSGSELKKPGASVKVSCKASGYTFTNYGMNWVKQAPGQDLKWMGWINTYTGEPRYADEFKGRFVFSLDTSVSTAYLQISSLKAEDTATYYCARGGYPHYYSMDYWGQGTTVTVSS
VL: DIQMTQSPSSLSASVGDRVTITCRASQDINNYLNWYQQKPGKTPKLLIYYTSKLHSGVPSRFSGSGSGRDYILTISSLQPEDIATYYCQQGNTLPRTFGGGTKVEIKR
notes: Only variable regions are tied to it; also called Hu6G1 H3L3
EC50 (read off the curve) [2]: ~0.08 µg/mL

B8: huH1L5 (antibody, V domains shown)
VH: QVQLVQSGSELKKPGASVKVSCKASGYTFTNYGMNWVRQAPGQGLKWMGWINTYTGEPRYADEFKGRFVFSLDTSVSTAYLQISSLKAEDTATYYCARGGYPHYYSMDYWGQGTTVTVSS
VL: DIQMTQSPSSLSASVGDRVTITCRASQDINNYLNWYQQKPGKTPKLLIYYTSKLHSGVPSRFSGSGSGRDYILTISSLQPEDIATYFCQQGNTLPRTFGGGTKVEIKR
notes: also called humanized 6G1 version H1L5
binding result [2]: binds

The next lines start with the values.

EC50 (read off the curve) [2]: ~0.08 µg/mL
B3: chimeric 6G1 (antibody, V domains shown)
VH: QIQLVQSGPELKKPGETVKISCKASGYTFTNYGMNWVKQAPGKDLKWMGWINTYTGEPRYADEFKGRFAFSLETSASTAYLQINNLKNEDMATYFCAKGGYPHYYSMDYWGQGTSVTVSS
VL: DIQMTQSTSSLSASLGDRVTISCRASQDINNYLNWYQQKPDGTIKLLIYYTSKLHSGVPSRFSGSGSGRDYSLTISNLEQEDIATYFCQQGNTLPRTFGGGTKLEIKR
notes: also called chi-6G1

fold higher affinity constant for iC3b than C3b [6]: ≥ 10 fold
fold higher affinity constant for iC3b than C3b [9]: ≥ 2 fold
B5: mouse monoclonal antibody 2H8r (antibody, V domains shown)
VH: QIQLVQSGPELKKPGETVKISCKASGYTFTNYGMNWVKQAPGKGLKWMGWINTYTGEPTYADDFKGRFAFSLETSASTAYLQINNLKNEDMATYFCAKGGYPHYYSMDYWGQGTSVTVSS
VL: DIQMTQTTSSLSASLGDRVTISCRASQDISNYLNWYQQKPDGTVKLLIYYTSRLHSGVPSRFSGSGSGTDYSLTISNLEQEDIATYFCQQGKTLPRTFGGGTKLEIKR
notes: also called m2H8r

fold specificity for iC3b vs. C3 or C3b [3]: > 2 fold
fold higher affinity constant for iC3b than C3b [6]: ≥ 10 fold
B6: mouse monoclonal antibody 5D2 (antibody, IgG1, V domains shown)
VH: EVQLQQSGPELVKPGASVKISCKASGYTFTDNYYMNWVKQSHGKSLEWIGHIYPNNGVTSYNQKFRGKATLTVDKSSNSAYMELRSLTSEDSALYYCARNKLLSLYWYFDVWGTGTSVTVSS
VL: DIQMTQSSSSFSVFLGDRITITCRASVDIYNRLAWFQQKPGNAPRLLISGATSLATGVPSRFSGSGSGKDYTLSITSLQTEDVTIYYCQQYWSTPWTFGGGTKLEIKR
notes: also called m5D2

binding result [2]: binds
B9: humanized 6G1 version H3L5 (antibody, V domains shown)
VH: QVQLVQSGSELKKPGASVKVSCKASGYTFTNYGMNWVKQAPGQDLKWMGWINTYTGEPRYADEFKGRFVFSLDTSVSTAYLQISSLKAEDTATYYCARGGYPHYYSMDYWGQGTTVTVSS
VL: DIQMTQSPSSLSASVGDRVTITCRASQDINNYLNWYQQKPGKTPKLLIYYTSKLHSGVPSRFSGSGSGRDYILTISSLQPEDIATYFCQQGNTLPRTFGGGTKVEIKR
notes: H3 = 6G1 Hu v3 heavy, L5 = 6G1 Hu v5 light

EC50 (read off the curve) [2]: ~0.1 µg/mL
B10: humanized 6G1 version H1L2 (antibody, V domains shown)
VH: QVQLVQSGSELKKPGASVKVSCKASGYTFTNYGMNWVRQAPGQGLKWMGWINTYTGEPRYADEFKGRFVFSLDTSVSTAYLQISSLKAEDTATYYCARGGYPHYYSMDYWGQGTTVTVSS
VL: DIQMTQSPSSLSASVGDRVTITCRASQDINNYLNWYQQKPGKTPKLLIYYTSKLHSGVPSRFSGSGSGRDYIFTISSLQPEDIATYYCQQGNTLPRTFGGGTKVEIKR
notes: H1 = 6G1 Hu v1 heavy, L2 = 6G1 Hu v2 light
